From PMC7382501 (Nature Communications, 2020)

Biological target: the molecule itself
Experiment: crystal structure

B1: FasRΔ33, truncated FasR lacking the first 33 amino acids (domain or fragment)
chain: RLPRDERRGQLLVVASDVFVDRGYHAAGMDEIADRAGVSKPVLYQHFSSKLELYLAVLHRHVENLVSGVHQALSTTTDNRQRLHVAVQAFFDFIEHDSQGYRLIFENDFVTEPEVAAQVRVATESCIDAVFALISADSGLDPHRARMIAVGLVGMSVDCARYWLDADKPISKSDAVEGTVQFAWGGLSHVPLTRS
B1 was tested, and the “stoichiometry N” value was 2.
